Paper PMC12749422

Key:
[1] = biological target: A/Singapore/INFIMH/16 (Sing/16) H3 hemagglutinin, recombinant HA-GCN4-2x sfGFP, glycosylated (influenza A virus A/Singapore/INFIMH/16 (H3N2)); assay: cryo-EM structure
[2] = biological target: A/Singapore/INFIMH/16 (Sing/16) H3 hemagglutinin, recombinant HA-GCN4-2x sfGFP, treated with endo H (influenza A virus A/Singapore/INFIMH/16 (H3N2)); assay: cryo-EM structure

| Substance | stoichiometry N [1] | stoichiometry N [2] |
| --- | --- | --- |
| A/Singapore/INFIMH/16 (Sing/16) H3 hemagglutinin, recombinant HA-GCN4-2x sfGFP, glycosylated (natural protein) | 3 |  |
| A/Singapore/INFIMH/16 (Sing/16) H3 hemagglutinin, recombinant HA-GCN4-2x sfGFP, treated with endo H (natural protein) |  | 3 |
